Experimental data: paper PMC7023257

Molecular target: SecY(S329C)EG (E. coli) (UniProt P0AGA2)

Binder: MKKTAIAIAVALAGFATVAQC
- characteristic lifetime of the open channels at φ = −140 mV after cross-linking by KTT: 14 s
